The values that follow come from IntAct's records for PubMed 9468139.

First the molecules themselves.
B1: Retinoblastoma-associated protein (Homo sapiens), P06400 (parent)
chain: MPPKTPRKTAATAAAAAAEPPAPPPPPPPEEDPEQDSGPEDLPLVRLEFEETEEPDFTALCQKLKIPDHVRERAWLTWEKVSSVDGVLGGYIQKKKELWGICIFIAAVDLDEMSFTFTELQKNIEISVHKFFNLLKEIDTSTKVDNAMSRLLKKYDVLFALFSKLERTCELIYLTQPSSSISTEINSALVLKVSWITFLLAKGEVLQMEDDLVISFQLMLCVLDYFIKLSPPMLLKEPYKTAVIPINGSPRTPRRGQNRSARIAKQLENDTRIIEVLCKEHECNIDEVKNVYFKNFIPFMNSLGLVTSNGLPEVENLSKRYEEIYLKNKDLDARLFLDHDKTLQTDSIDSFETQRTPRKSNLDEEVNVIPPHTPVRTVMNTIQQLMMILNSASDQPSENLISYFNNCTVNPKESILKRVKDIGYIFKEKFAKAVGQGCVEIGSQRYKLGVRLYYRVMESMLKSEEERLSIQNFSKLLNDNIFHMSLLACALEVVMATYSRSTSQNLDSGTDLSFPWILNVLNLKAFDFYKVIESFIKAEGNLTREMIKHLERCEHRIMESLAWLSDSPLFDLIKQSKDREGPTDHLESACPLNLPLQNNHTAADMYLSPVRSPKKKGSTTRVNSTANAETQATSAFQTQKPLKSTSLSLFYKKVYRLAYLRLNTLCERLLSEHPELEHIIWTLFQHTLQNEYELMRDRHLDQIMMCSMYGICKVKNIDLKFKIIVTAYKDLPHAVQETFKRVLIKEEEYDSIIVFYNSVFMQRLKTNILQYASTRPPTLSPIPHIPRSPYKFPSSPLRIPGGNIYISPLKSPYKISEGLPTPTKMTPRSRILVSIGESFGTSEKFQKINQMVCNSDRVLKRSAEGSNPPKPLKKLRFDIEGSDEADGSKHLPGESKFQQKLAEMTSTRTRMQKQKMNDSMDTSNKEEK

This test covers variants of B1. The following applies: with hdac1_human HDAC1, Q13547.
Sequence of hdac1_human HDAC1, Q13547 (Q13547 whole entry): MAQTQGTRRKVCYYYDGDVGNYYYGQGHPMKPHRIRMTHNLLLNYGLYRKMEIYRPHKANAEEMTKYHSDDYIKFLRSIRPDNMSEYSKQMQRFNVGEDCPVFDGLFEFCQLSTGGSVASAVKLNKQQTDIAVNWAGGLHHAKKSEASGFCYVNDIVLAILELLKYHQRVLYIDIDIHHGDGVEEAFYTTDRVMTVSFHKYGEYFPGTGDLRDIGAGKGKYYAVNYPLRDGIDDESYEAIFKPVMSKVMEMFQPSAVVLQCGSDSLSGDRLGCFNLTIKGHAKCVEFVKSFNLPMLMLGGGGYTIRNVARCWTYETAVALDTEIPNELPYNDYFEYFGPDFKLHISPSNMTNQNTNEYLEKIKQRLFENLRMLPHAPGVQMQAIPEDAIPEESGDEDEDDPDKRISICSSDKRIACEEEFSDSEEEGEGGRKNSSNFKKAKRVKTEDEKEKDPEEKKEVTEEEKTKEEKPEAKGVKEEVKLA
As for C706F, the “effect of a mutation on the interaction” value is on record as “decreasing interaction”.
